1 molecule from patent US20240141028A1 (RHODE ISLAND HOSPITAL, published 2024) can be followed below.

The target in this experiment is T1, PfGARP aa 443-459 (…) (Plasmodium falciparum).
T1 construct: Stood on the microarray as overlapping 15-mer peptides, not as one 17-mer
The experiment can be described thus: microarray of overlapping 15-mer peptides.

Source text: The peptides overlapped by a single amino acid and were printed in duplicate, framed by HA control peptides.
For epitope mapping, a custom 15-mer peptide microarray was designed and printed. […] The peptides overlapped by a single amino acid and were printed in duplicate, framed by HA control peptides. […] A duplicate array was probed with polyclonal, monospecific anti-PfGARP-A mouse antibodies (red).

B1: recombinant monoclonal anti-PfGARP (rec mAb7899) (antibody, V domains shown)
VH: EAQLQQSGTELVKPGASVKLSCTASGFYIKDTYIHWVRQRPVQGLEWIGRIDPANYDTKYDPKFQGKATITADTSSNTAYLQLINLTPEDTVVYYCTSFGGTKLRFAYWGQGTLVTVSA
VL: NIMMTQSPSSLAVSAGEEVTMSCKSSQSVLYSSNQRNYLAWFQQKSGQSPKLLIYWASTRESGVPDRFTGSGSGTDFTLTISNLQVEDLAVYYCLQHFSSWTFGGGTKLEIK
notes: also called recombinant mAb7899; recombinant mAb
Turning to B1, the binding result is listed as “binds”.
